Experimental findings from EP1987837A1 (Technische Universität Dresden Medizinische Fakultät Carl …, dated 2008) are described below.

Data set [1] concerns the target endogenous β2-syntrophin (rat) (UniProt P01322). The data set can be described thus: cell-based or functional assay.
A further data set deals with T1, 35S-Luciferase (firefly, UniProt P08659 1-550 = luciferase, 35S-methionine labelled).
T1 construct: Control protein in the pull-down assays; also called firefly luciferase; control protein
T1 sequence (P08659 whole entry): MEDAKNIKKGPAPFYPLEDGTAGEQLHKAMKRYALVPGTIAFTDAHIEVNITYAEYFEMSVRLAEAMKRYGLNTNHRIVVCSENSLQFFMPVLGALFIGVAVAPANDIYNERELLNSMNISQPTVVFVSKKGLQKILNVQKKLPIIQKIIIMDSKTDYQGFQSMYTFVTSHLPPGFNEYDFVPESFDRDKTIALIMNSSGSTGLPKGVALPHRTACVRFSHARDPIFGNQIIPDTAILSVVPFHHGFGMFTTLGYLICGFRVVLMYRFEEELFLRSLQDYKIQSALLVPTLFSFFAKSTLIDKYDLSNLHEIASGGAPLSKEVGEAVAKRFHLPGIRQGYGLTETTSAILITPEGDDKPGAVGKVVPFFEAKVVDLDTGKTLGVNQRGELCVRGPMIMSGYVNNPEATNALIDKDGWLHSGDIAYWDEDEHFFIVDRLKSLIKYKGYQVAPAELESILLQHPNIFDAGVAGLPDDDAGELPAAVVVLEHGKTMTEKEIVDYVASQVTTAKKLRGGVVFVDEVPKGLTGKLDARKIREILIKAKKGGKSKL
Put plainly: GST pull-down, SDS-PAGE and autoradiography.

The target of the next data set is T2, 35S-ICA512601-979 (Homo sapiens (Human), UniProt Q16849 601-979, 35S-methionine labelled).
T2 construct: also called cytoplasmic portion of ICA512
T2 sequence: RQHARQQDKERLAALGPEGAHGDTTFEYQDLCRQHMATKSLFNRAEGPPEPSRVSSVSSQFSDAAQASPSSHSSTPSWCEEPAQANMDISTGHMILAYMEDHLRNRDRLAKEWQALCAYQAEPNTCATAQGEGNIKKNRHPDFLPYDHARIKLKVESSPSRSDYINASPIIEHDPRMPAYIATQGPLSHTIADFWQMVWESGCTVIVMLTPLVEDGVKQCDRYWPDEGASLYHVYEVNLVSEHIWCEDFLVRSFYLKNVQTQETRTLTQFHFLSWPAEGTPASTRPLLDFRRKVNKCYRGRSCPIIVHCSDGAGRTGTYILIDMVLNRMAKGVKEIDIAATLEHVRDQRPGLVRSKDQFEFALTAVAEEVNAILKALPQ
The data set can be described thus: GST pull-down, SDS-PAGE and autoradiography.

For the next data set, the target named is T3, 35S-ICA512700-979 (Homo sapiens (Human), UniProt Q16849 700-979, 35S-methionine labelled).
T3 construct: In vitro transcribed and translated from pET28a; also called PTP portion of ICA512
T3 sequence: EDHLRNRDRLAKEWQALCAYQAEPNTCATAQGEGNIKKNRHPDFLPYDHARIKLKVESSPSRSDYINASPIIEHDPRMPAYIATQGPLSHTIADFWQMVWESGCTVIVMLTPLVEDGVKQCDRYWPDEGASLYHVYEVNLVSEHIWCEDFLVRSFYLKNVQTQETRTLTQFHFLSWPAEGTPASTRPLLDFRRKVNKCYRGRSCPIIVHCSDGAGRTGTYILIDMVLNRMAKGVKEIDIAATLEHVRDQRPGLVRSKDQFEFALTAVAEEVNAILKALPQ
The data set can be described thus: GST pull-down, SDS-PAGE and autoradiography.

Data set [2] deals with the molecule itself. Put plainly: co-immunoprecipitation from INS-1E cells.

Turning to “ICA512-TMF (from UniProt Q63259 41-983) (receptor)”, in data set [1], the insulin stimulation index after knockdown of β2-syntrophin, compared to control cells amounted to 34%.

B1: GST-ICA512601-979 (other)
chain: RQHARQQDKERLAALGPEGAHGDTTFEYQDLCRQHMATKSLFNRAEGPPEPSRVSSVSSQFSDAAQASPSSHSSTPSWCEEPAQANMDISTGHMILAYMEDHLRNRDRLAKEWQALCAYQAEPNTCATAQGEGNIKKNRHPDFLPYDHARIKLKVESSPSRSDYINASPIIEHDPRMPAYIATQGPLSHTIADFWQMVWESGCTVIVMLTPLVEDGVKQCDRYWPDEGASLYHVYEVNLVSEHIWCEDFLVRSFYLKNVQTQETRTLTQFHFLSWPAEGTPASTRPLLDFRRKVNKCYRGRSCPIIVHCSDGAGRTGTYILIDMVLNRMAKGVKEIDIAATLEHVRDQRPGLVRSKDQFEFALTAVAEEVNAILKALPQ
notes: Bacterially expressed, coupled to glutathione sepharose beads (1 µg); The construct is only cited (Ort et al., 2000); not shown: glutathione S-transferase (GST) fusion partner
On to B1, for which, in the data set with 35S-Luciferase, the binding result is given as “no binding”.

B2: GST-ICA512800-979 (other)
chain: ESGCTVIVMLTPLVEDGVKQCDRYWPDEGASLYHVYEVNLVSEHIWCEDFLVRSFYLKNVQTQETRTLTQFHFLSWPAEGTPASTRPLLDFRRKVNKCYRGRSCPIIVHCSDGAGRTGTYILIDMVLNRMAKGVKEIDIAATLEHVRDQRPGLVRSKDQFEFALTAVAEEVNAILKALPQ
notes: Bacterially expressed, on glutathione sepharose beads; not shown: glutathione S-transferase (GST) fusion partner
B2: the binding result in the data set with 35S-ICA512601-979 and with 35S-ICA512700-979 was “no binding” throughout.

B3: pro-ICA512 (receptor, rat, UniProt Q63259 41-983, looked up)
chain: ISAHGCLFDRRLCSHLEVCIQDGLFGQCQAGVGQARPLLQVTSPVLQRLQGVLRQLMSQGLSWHDDLTQYVISQEMERIPRLRPPEPHPRDRSGSVPRRAGPAGELLSQGNPTGSSPAVQGLSRPPGDGNGAGVGSPLSSLQAELLPPLLEHLLMPPQPPHPSLTYEPALLQPYLFQQFGSRDGSRGSESASGVVGHLAKAEDPVLFSRSLSKAILGTHSGHSFGDLTGPSPAQLFQDSGLLYMAQELPVPGRARAPRLPEEGGSSRAEDSSEGHEEEVLGGHGEKSPPQAVQADVSLQRLAAVLAGYGVELRQLTPEQLSTLLTLLQLLPKGTGRHLGGAVNGGADVKKTIEEQMQRGDTADARPPTPLLPGHPTASSTSIKVRQVLSPGFPEPPKTSSPLGISAVLLEKKSPLGQSQPTVVGQPSARPSAEEYGYIVTDQKPLSLVAGVKLLEILAEHVHMTSGSFINISVVGPAVTFRIRHNEQNLSLADVTQQAGLVKSELEAQTGLQILQTGVGQREESAAVLPRQAHGISPMRSLLLTLVALAGVAGLLVALAVALCMRHHSKQRDKERLAALGPEGAHGDTTFEYQDLCRQHMATKSLFNRAEGQPEPSRVSSVSSQFSDAAQASPSSHSSTPSWCEEPAQANMDISTGHMILAYMEDHLRNRDRLAKEWQALCAYQAEPNTCATAQGEGNIKKNRHPDFLPYDHARIKLKVESSPSRSDYINASPIIEHDPRMPAYIATQGPLSHTIADFWQMVWESGCTVIVMLTPLVEDGVKQCDRYWPDEGSSLYHVYEVNLVSEHIWCEDFLVRSFYLKNVQTQETRTLTQFHFLSWPAEGTPASTRPLLDFRRKVNKCYRGRSCPIIVHCSDGAGRTGTYILIDMVLNRMAKGVKEIDIAATLEHVRDQRPGLVRSKDQFEFALTAVAEEVNAILKALPQ
notes: In cells expressing ICA512-GFP, one partner may be the GFP-tagged form; also called pro-form of ICA512, glycoprotein of 110 kDa
On to B3, for which the binding result in data set [2] is “no binding”.
